We go through 2 molecules from patent US20150166670A1 (Hoffmann-La Roche, published 2015).

The target in one assay is T1, human HER2 ectodomain (human, UniProt P04626 23-652).
T1 construct: extracellular domain; also called hu HER2 ECD; Her2 ECD
Briefly: SPR (Biacore T100), antibody captured via anti-human IgG-Fc on a CM5 chip, dual inject Her2 then Her3 ectodomain, 180 s each, 25 °C.

The next assay has as its target T2, human HER3 ectodomain (human, UniProt P21860 20-643).
T2 construct: extracellular domain; also called hu HER3 ECD; Her3 ECD
Put plainly: SPR Biacore T100, 37 C, antibody captured via anti-human IgG-Fc, ECD as analyte, 1:1 Langmuir fit.

Another assay has as its target T3, human HER1 ectodomain (human, UniProt P00533 25-645).
T3 construct: extracellular domain; also called hu HER1 ECD; Her1 ECD
Described as above.

T2 sequence (P21860 20-643): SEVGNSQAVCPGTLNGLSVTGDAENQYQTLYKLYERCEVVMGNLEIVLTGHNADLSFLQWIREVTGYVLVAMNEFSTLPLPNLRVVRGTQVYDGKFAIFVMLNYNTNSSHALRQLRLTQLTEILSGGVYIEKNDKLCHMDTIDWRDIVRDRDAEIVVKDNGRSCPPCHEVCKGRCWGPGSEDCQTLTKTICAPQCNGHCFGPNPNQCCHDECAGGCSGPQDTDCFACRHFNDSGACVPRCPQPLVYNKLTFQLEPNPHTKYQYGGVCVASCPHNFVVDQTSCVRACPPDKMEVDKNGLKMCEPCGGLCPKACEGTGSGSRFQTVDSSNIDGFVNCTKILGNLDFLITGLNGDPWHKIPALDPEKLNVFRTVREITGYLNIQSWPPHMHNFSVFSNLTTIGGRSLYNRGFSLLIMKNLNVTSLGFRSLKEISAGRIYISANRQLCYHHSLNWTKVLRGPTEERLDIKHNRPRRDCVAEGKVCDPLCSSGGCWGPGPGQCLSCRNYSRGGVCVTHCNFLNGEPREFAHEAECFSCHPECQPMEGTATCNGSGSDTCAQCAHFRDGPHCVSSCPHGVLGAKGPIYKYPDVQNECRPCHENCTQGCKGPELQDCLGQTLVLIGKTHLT
Procedure for human HER1 ectodomain: (§1) All experiments were performed on a Biacore T100 (GE Healthcare). Experimental results were analyzed using the T100 control and evaluation software package (GE Healthcare, v2.03). The assay format was a ‘multi cycle kinetic’ measurement on a CM5-chip. […] Using a concentration series, seven increasing concentrations of each of the antigens (human Her1, Her2, and Her3 ectodomain) were injected separately. […] Running buffer was PBS-T. Dilution buffer was PBST containing BSA (c=1 mg/mL). Capturing of MAbs<HerX> on flow cell 2, 3, and 4 with a concentration of approx. c=1 nM, flow 50/min, time 72 sec. […] Dissociation time: 1800 sec. Each concentration was analyzed as duplicate. Final regeneration was performed after each cycle using 3 M MgCl2 (recommended by vendor) with a contact time of 120 sec and a flow rate of 50 μl/min. Analysis of simultaneous binding: Her2/Her3, Her3/Her2 or Her1/Her2 were injected consecutively using the dual inject mode with a contact time of 180 sec. each. The antigen concentration was chosen for each antigen at the saturation as observed in the kinetics experiment. […] A temperature of 25° C. was chosen to minimize dissociation. Triplicates for each combination were determined. Flow rate 30 mL/min, dual inject with two injects, each 180 sec.
Procedure for human HER2 ectodomain: as §1
Procedure for human HER3 ectodomain: as §1

B1: parental DAF (Her1-Her3 dual affinity antibody) (antibody)
heavy 1: not shown
heavy 2: not shown
light: DIQMTQSPSSLSASVGDRVTITCRASQNIATDVAWYQQKPGKAPKLLIYSASFLYSGVPSRFSGSGSGTDFTLTISSLQPEDFATYYCQQSEPEPYTFGQGTKVEIKRTVAAPSVFIFPPSDEQLKSGTASVVCLLNNFYPREAKVQWKVDNALQSGNSQESVTEQDSKDSTYSLSSTLTLSKADYEKHKVYACEVTHQGLSSPVTKSFNRGEC
notes: also called DAF antibody; Bispecific parent Her1/Her3 (with KiH)
For B1, the binding result with human HER2 ectodomain is “no binding”. In addition, in the assay with human HER3 ectodomain, binding was put at a Kd of 1.9 nM, the koff came to 0.0037 s⁻¹, the kon was 2e+06 M⁻¹ s⁻¹ and the “t ½” value worked out at 3.1 min. In the assay with human HER1 ectodomain, the Kd was found to be 14 nM, the koff turned out to be 0.021 s⁻¹, the kon turned out to be 1.4e+06 M⁻¹ s⁻¹ and the “t ½” value stood at 0.6 min.

B2: trispecific antibody KiH Her1-Her3 DAF-xHer2 (antibody, human IgG1, kappa)
heavy 1: not shown
heavy 2: not shown
light 1: B1 light
light 2: DIQMTQSPSSLSASVGDRVTITCKASQDVSIGVAWYQQKPGKAPKLLIYSASYRYTGVPSRFSGSGSGTDFTLTISSLQPEDFATYYCQQYYIYPYTFGQGTKVEIKSSASTKGPSVFPLAPSSKSTSGGTAALGCLVKDYFPEPVTVSWNSGALTSGVHTFPAVLQSSGLYSLSSVVTVPSSSLGTQTYICNVNHKPSNTKVDKKVEPKSC
notes: also called Trispecific Her1/Her3 xHer2
In the case of B2, in the assay with human HER3 ectodomain, the affinity, expressed as Kd, was 1.8 nM; the dissociation rate constant (koff) turned out to be 0.0044 s⁻¹; the kon was 2.4e+06 M⁻¹ s⁻¹; the “t ½” value came out at 2.6 min. Also, in the assay with human HER1 ectodomain, the Kd was 17 nM, the koff is 0.02 s⁻¹, the kon came to 1.2e+06 M⁻¹ s⁻¹ and the “t ½” value was 0.6 min.

For orientation: Kd means a measure of binding affinity in units of concentration. Low values mean higher affinity, high ones lower affinity. What is called koff is a measure of how fast the partners let go of each other. Higher therefore signals fast dissociation. Usually kon stands for the second-order rate constant of association. Higher therefore signals faster complex formation.
